From patent publication US20210373004A1 (BIOASTER, published 2021) come the findings set out here.

By Kd is commonly meant the constant that tells how readily two partners part at equilibrium. A higher Kd goes with lower affinity.

Test [1] addresses T1, Flag-mCherry-ColE8-6His (Escherichia coli).
T1 construct: also called Colicin E8
The test is described as follows: kinetics, literature value (Li W. et al., 2004) printed above the bar pair; unit from the legend paragraph 10.

Test [2] has as its target T2, Flag-mCherry-ColE9-6His (Escherichia coli).
T2 construct: also called Colicin E9
The test is described as above.

For test [3], the target named is T3, Flag-EmGFP-ColE7-6His (Escherichia coli).
T3 construct: also called Colicin E7
The description is as above.

Test [4] deals with T2, Flag-mCherry-ColE9-6His. Briefly: EIA 8 plex n° 1: colicin coated at 100 nM, Im-RLuc8 alone at 100 nM, luciferase signal (FIG. 3, light grey bars).
For test [5], the target named is T4, Flag-mCherry-ColSyr-Cys-6His (Pseudomonas syringae B728A). The test is described as follows: EIA 8 plex n° 1: colicin coated at 100 nM, Im-RLuc8 alone at 100 nM, luciferase signal.
Test [6] deals with T3, Flag-EmGFP-ColE7-6His. The description is as above.
Test [7] addresses T5, Flag-mCherry-ColAP41-Cys-6His (Pseudomonas aeruginosa AP41). The description is as above.
Test [8] addresses T6, Flag-mCherry-ColLeaf-Cys-6His (Pseudomonas sp Leaf83). The test is described as follows: EIA 8 plex n° 2: colicin coated at 100 nM, Im-RLuc8 alone at 100 nM, luciferase signal.
Test [9] has as its target T1, Flag-mCherry-ColE8-6His. The description is as above.
Test [10] has as its target T2, Flag-mCherry-ColE9-6His. Briefly: EIA 4 plex: colicin coated at 100 nM, Im-RLuc8 alone at 100 nM, luciferase signal (FIG. 1, light grey bars).
Test [11] deals with T6, Flag-mCherry-ColLeaf-Cys-6His. The test is described as follows: EIA 8 plex n° 2: colicin coated at 100 nM, Im-RLuc8 at 100 nM, luminescence; light bar alone, dark bar with the 7 other unfused Im proteins.
Test [12] deals with T4, Flag-mCherry-ColSyr-Cys-6His. Briefly: EIA 8 plex n° 1: colicin coated at 100 nM, Im-RLuc8 at 100 nM, luminescence; light bar alone, dark bar with the 7 other unfused Im proteins.
For test [13], the target named is T5, Flag-mCherry-ColAP41-Cys-6His. The test is described as above.
The target in test [14] is T2, Flag-mCherry-ColE9-6His. Briefly: EIA 8 plex n° 2: colicin coated at 100 nM, Im-RLuc8 alone at 100 nM, luciferase signal (FIG. 4, light grey bars).

B1: Myc-RLuc8-Im9-6His (other)
chain: MGGEQKLISEEDLGGSASKVYDPEQRKRMITGPQWWARCKQMNVLDSFINYYDSEKHAENAVIFLHGNATSSYLWRHVVPHIEPVARCIIPDLIGMGKSGKSGNGSYRLLDHYKYLTAWFELLNLPKKIIFVGHDWGAALAFHYAYEHQDRIKAIVHMESVVDVIESWDEWPDIEEDIALIKSEEGEKMVLENNFFVETVLPSKIMRKLEPEEFAAYLEPFKEKGEVRRPTLSWPREIPLVKGGKPDVVQIVRNYNAYLRASDDLPKLFIESDPGFFSNAIVEGAKKFPNTEFVKVKGLHFLQEDAPDEMGKYIKSFVERVLKNEQKLELKHSISDYTEAEFLQLVTTICNADTSSEEELVKLVTHFEEMTEHPSGSDLIYYPKEGDDDSPSGIVNTVKQWRAANGKLEGGGSHHHHHH
notes: Immunity protein fused to the luciferase RLuc8 as reporter; added in solution; also called Im9-RLuc8; Im9-Rluc8
For the molecule B1, the Kd in test [1] amounted to 64 nM; in test [2], 0.024 pM; in [3], 38 nM. The RLU in [4] is above 2e+06 RLU; in test [5], above 100000 RLU; in test [6], above 100000 RLU; in test [7] it was above 100000 RLU; in test [8], above 100000 RLU; in [9], above 100000 RLU. The RLU was above 400000 RLU in [10] and above 2.4e+06 RLU in test [14]. Besides, the binding result in [11], in [12] and in test [13] was “no binding (tested: 100 nM)” each time.
